Data taken from patent US20260266848A1, “COMPOSITIONS AND METHODS FOR DIAGNOSING AND TREATING DYSTONIA” (Duke University, priority 2023, published 2026).

Tests used:
[1] = tested on: DYT-TOR1A MEF EVs; assay: Quantitative LC-MS/MS proteomics of EVs from drug-treated DYT-TOR1A MEF cultures (ritonavir, salubrinal); format: cell-based, mouse; set-up: key to RTV Corrective Direction / RTV Corrective Direction, Grwd1 / RTV Corrective Direction, Srrm2 / RTV Corrective Direction, Rbm17 / RTV Corrective Direction, Dcaf8 / RTV Corrective Direction, Edil3 / RTV Corrective Direction, Timp3 / RTV Corrective Direction, Heatr3 / RTV Corrective Direction, Brd4 / RTV Corrective Direction, P3h4 / RTV Corrective Direction, Pacsin3 / RTV Corrective Direction, Naa50 / RTV Corrective Direction, Lpar6 / RTV Corrective Direction, Ndrg1 / RTV Corrective Direction, Kntc1 / RTV Corrective Direction, Cdk11b / RTV Corrective Direction, Sumo1 / RTV Corrective Direction, Lsm4 / RTV Corrective Direction, Hmga2 / RTV Corrective Direction, Cstf1 / RTV Corrective Direction, Tes / RTV Corrective Direction, Sbno1 / RTV Corrective Direction, Unc119b / RTV Corrective Direction, Cfdp1 / RTV Corrective Direction, Sec61b: YES = protein abundance effect opposite to DYT/WT; conditions: EV protein abundance; for RTV Corrective Direction: DYT + RTV (ritonavir) vs DYT, direction compared with DYT/WT; for DYT + RTV/DYT Cohen's d: ritonavir (RTV)-treated DYT vs DYT
[2] = tested on: WT MEF EVs; assay: Quantitative LC-MS/MS proteomics of EVs from ISRIB-treated WT MEF cultures; format: cell-based, mouse; set-up: key to ISRIB and DYT Parallel Direction / ISRIB and DYT Parallel Direction, Ctdsp1 / ISRIB and DYT Parallel Direction, Pcdh19 / ISRIB and DYT Parallel Direction, Tspan7 / ISRIB and DYT Parallel Direction, Myo1e / ISRIB and DYT Parallel Direction, Plpp3 / ISRIB and DYT Parallel Direction, Sh3bp4 / ISRIB and DYT Parallel Direction, Dnajc7 / ISRIB and DYT Parallel Direction, Drg1 / ISRIB and DYT Parallel Direction, Maea: YES = protein abundance effect similar to DYT/WT; conditions: EV protein abundance; for WT + ISRIB/WT Cohen's d: ISRIB-treated WT vs WT; for ISRIB and DYT Parallel Direction: WT + ISRIB vs WT, direction compared with DYT/WT

Row | Molecule | RTV Corrective Direction [1] | DYT + RTV/DYT Cohen's d [1] | WT + ISRIB/WT Cohen's d [2] | ISRIB and DYT Parallel Direction [2]
1 | Mvd (protein, UniProt P53602 2-400, looked up) Diphosphomevalonate …: ASEKPLAAVTCTAPVNIAVIKYWGKRDEELVLPINSSLSVTLHQDQLKTTTTAVISKDFTEDRIWLNGREEDVGQPRLQACLREIRCLARKRRNSRDGDPLPSSLSCKVHVASVNNFPTAAGLASSAAGYACLAYTLARVYGVESDLSEVARRGSGSACRSLYGGFVEWQMGEQADGKDSIARQVAPESHWPELRVLILVVSAEKKLTGSTVGMRASVETSPLLRFRAESVVPARMAEMARCIRERDFPSFAQLTMKDSNQFHATCLDTFPPISYLNAISWRIIHLVHRFNAHHGDTKVAYTFDAGPNAVIFTLDDTVAEFVAAVWHGFPPGSNGDTFLKGLQVRPAPLSAELQAALAMEPTPGGVKYIIVTQVGPGPQILDDPCAHLLGPDGLPKPAA | YES | 4.38 | −0.34 | YES
2 | Dhx15 (protein, UniProt O35286 1-795, looked up) ATP-dependent RNA helicase …: MSKRHRLDLGEDYPSGKKRAGTDGKDRERDRDREDRSKDRDRERDRGDREREREKEKEKELRASTNAMLISAGLPPLKASHSAHSTHSAHSTHSTHSAHSTHTGHTGHTSLPQCINPFTNLPHTPRYYDILKKRLQLPVWEYKDRFTDILVRHQSFVLVGETGSGKTTQIPQWCVEYMRSLPGPKRGVACTQPRRVAAMSVAQRVADEMDVMLGQEVGYSIRFEDCSSAKTILKYMTDGMLLREAMNDPLLERYGVIILDEAHERTLATDILMGVLKEVVRQRSDLKVIVMSATLDAGKFQIYFDNCPLLTIPGRTHPVEIFYTPEPERDYLEAAIRTVIQIHMCEEEEGDLLLFLTGQEEIDEACKRIKREVDDLGPEVGDIKIIPLYSTLPPQQQQRIFEPPPPKKQNGAIGRKVVVSTNIAETSLTIDGVVFVIDPGFAKQKVYNPRIRVESLLVTAISKASAQQRAGRAGRTRPGKCFRLYTEKAYKTEMQDNTYPEILRSNLGSVVLQLKKLGIDDLVHFDFMDPPAPETLMRALELLNYLAALNDDGDLTELGSMMAEFPLDPQLAKMVIASCDYNCSNEVLSITAMLSVPQCFVRPTEAKKAADEAKMRFAHIDGDHLTLLNVYHAFKQNHESVQWCYDNFINYRSLMSADNVRQQLSRIMDRFNLPRRSTDFTSRDYYINIRKALVTGYFMQVAHLERTGHYLTVKDNQVVQLHPSTVLDHKPEWVLYNEFVLTTKNYIRTCTDIKPEWLVKIAPQYYDMSNFPQCEAKRQLDRIIAKLQSKEYSQY | YES | 4.59 | −1.19 | YES
